Patent US20250051449A1 (SURFACE ONCOLOGY, published 2025)

Experiments:
[1] = target: T1, human CD112R expressed on Jurkat cells (human, UniProt Q6DKI7 1-326); assay: flow cytometry, wild type Jurkat cells, 0.63 ug/mL antibody
T1 construct: whole, on cells; Used for both Jurkat-CD112R OE cells and wild type Jurkat cells; which cells is said under assay; also called PVRIG; Jurkat-CD112R OE
T1 sequence (looked up): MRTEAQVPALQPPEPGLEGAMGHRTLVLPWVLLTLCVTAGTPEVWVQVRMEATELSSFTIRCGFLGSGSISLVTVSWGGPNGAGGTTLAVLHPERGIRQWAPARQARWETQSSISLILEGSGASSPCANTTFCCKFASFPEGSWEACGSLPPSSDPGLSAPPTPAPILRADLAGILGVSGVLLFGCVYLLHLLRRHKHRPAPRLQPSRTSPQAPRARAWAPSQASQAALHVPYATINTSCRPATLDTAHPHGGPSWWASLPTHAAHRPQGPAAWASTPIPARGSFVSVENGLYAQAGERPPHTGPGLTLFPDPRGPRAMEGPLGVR
Description: (§1) The ability of anti-CD112R antibodies to bind to CD112R expressed on cells was evaluated. 1×10⁵ Jurkat cells (acute T cell leukemia cell line, ATCC #TIB-152) that were either wild type or engineered to over-express human CD112R (Jurkat-CD112R OE) were added to each well of a 96-well V bottom plate and stained with either anti-CD112R antibodies or an IgG1 isotype control (0.63 μg/mL) for 1 hour at 4° C. Cells were washed twice with PBS+2% FCS and resuspended with Alexa Fluor® 647 anti-human IgG Fc antibody (Biolegend, Cat #409320) diluted 1:100 in PBS+2% FCS and incubated at 4° C. for 30 minutes. Cells were subsequently washed twice and resuspended in PBS+2% FCS. Cellular data was acquired using a LSRFortessa X-20 (BD Biosciences) and analyzed with FlowJo software (Tree Star).

[2] = target: T2, CD112R-hIgG4 fusion protein (human, UniProt Q6DKI7 41-171, limits assumed); assay: blocking ELISA: coated CD112R-hIgG4, antibody, then biotinylated CD112 Fc
T2 construct: also called human CD112R-hIgG4; not shown: human IgG4 portion (hIgG4)
T2 sequence (looked up): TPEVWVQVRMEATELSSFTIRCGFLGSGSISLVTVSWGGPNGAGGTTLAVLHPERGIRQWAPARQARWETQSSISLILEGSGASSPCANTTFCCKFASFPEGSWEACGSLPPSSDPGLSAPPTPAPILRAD
Description: The ability of anti-CD112R antibodies to block human CD112R was also evaluated by ELISA. Briefly, 96 well Nunc Maxisorp plates were coated with 1 μg/mL of a CD112R-hIgG4 fusion protein in PBS overnight at 4° C. […] After blocking, plates were washed 6× with PBST. Next, 100 μl of anti-CD112R antibodies in PBS+1% BSA was added at a final starting concentration of 10 μg/mL, with 4-fold serial dilutions. Plates were incubated at room temperature for 1.5 hours. Next plates were washed 6× with PBST and then incubated with 1 μg/ml CD112 Fc protein (R&D Systems, Cat #9317-N2-050) that was biotinylated with a sulfo-NHS biotinylation kit (Thermo Fisher, Cat #21925) in 100 μl of PBS+1% BSA for 1 hour at room temperature. Plates were then washed 6× with PBST and subsequently incubated with streptavidin-HRP (Biolegend, Cat #405210) diluted in PBS+1% BSA according to the manufacturer recommendation for 1 hour at room temperature. Following this incubation, plates were then washed 6× with PBST and developed with TMB substrate (Life Technologies, Cat #002023). The reaction was stopped with an equal volume of stop solution (Life Technologies, Cat #SS04). Absorbance at 450 nm (O.D. 450) was measured on a SpectraMax plate reader.
Results are depicted in FIG. 2B and Table 2. […] Percent inhibition was calculated as [100−((test sample O.D. 450/Max 0.D. 450)*100%)] Max O.D. 450 was defined as absorbance at 450 nm in the absence of antibody.

[3] = target: T1, human CD112R expressed on Jurkat cells; assay: flow cytometry, Jurkat cells over-expressing human CD112R, 0.63 ug/mL antibody
Description: as §1
Results are depicted in FIG. 1. Quantitation of antibody binding to Jurkat-CD112R OE cells was assessed by the geometric mean fluorescent intensity (gMFI) of the Alexa Fluor® 647 signal.

[4] = target: T1, human CD112R expressed on Jurkat cells; assay: flow cytometry competition on Jurkat-CD112R OE cells; competitor biotinylated his-tagged human CD112
Description: The ability of anti-CD112R antibodies to block CD112 binding to CD112R expressing cells was evaluated. 1×10⁵ Jurkat cells (acute T cell leukemia cell line, ATCC #TIB-152) that were engineered to over-express human CD112R (Jurkat-CD112R OE) were added to each well of a 96-well V bottom plate and stained with serial dilutions of either anti-CD112R antibodies or an IgG1 isotype control (highest concentration, 10 μg/mL) for 1 hour at 4° C. Cells were washed twice with PBS+2% FCS and resuspended with biotinylated his-tagged human CD112 (3 μg/mL) (BPS Bioscience, #71234) and PE Streptavidin (5 μg/mL) (Biolegend, #405204) in PBS+2% FCS and incubated at 2 hours at 4° C. Cells were subsequently washed twice and resuspended in PBS+2% FCS. Cellular data was acquired using a LSRFortessa X-20 (BD Biosciences) and analyzed with FlowJo software (Tree Star).
Results are depicted in FIG. 2A and Table 2. […] Percent inhibition was calculated as [100−((test sample MFI/Max MFI)*100%)]

B1: Antibody 44 (antibody, V domains shown)
VH: QVQLVQSGAEVKKPGSSVKVSCKASGGTFDNYYISWVRQAPGQGLEWMGGIFPIFGTANYAQKFQGRVTITADESTSTAYMELSSLRSEDTAVYYCAREVGHYSGSPYYMDVWGKGTTVTVSS
VL: DIQMTQSPSTLSASVGDRVTITCRASQSINSWLAWYQQKPGKAPKLLISDASSLESGVPSRFSGSGSGTEFTLTISSLQPDDFATYYCQQVGPYLTFGGGTKVEIK
notes: Purified as IgG; compared with an IgG1 isotype control and detected with anti-human IgG Fc; also called antibody clone number 44; clone 44
gMFI (fold increase over isotype) [1]: 4.8 fold increase over isotype | CD112 blocking max inhibition ELISA (%) [2]: 96.8% | gMFI (fold increase over isotype) [3]: 46.9 fold increase over isotype | CD112 blocking max inhibition (%) [4]: 97.7% | IC50 [4]: 0.81 ng/mL

B2: Antibody 10 (antibody, V domains shown)
VH: EVQLVESGGGLVQPGRSLRLSCAASGFTFDDYAVHWVRQAPGKGLEWVSGISWSSGLIGYADSVKGRFTISRDNAKNSLYLQMNSLRAEDTAVYYCAKGPPTYQDYFDLWGRGTLVTVSS
VL: EIVLTQSPATLSLSPGERATLSCRASQSVSRYLAWYQQKPGQAPRLLIYDASNRATGIPARFSGSGSGTDFTLTISSLEPEDFAVYYCQQVSFFPPITFGGGTKVEIK
notes: Purified as IgG; compared with an IgG1 isotype control and detected with anti-human IgG Fc; also called antibody clone number 10; clone 10
gMFI (fold increase over isotype) [1]: 4.6 fold increase over isotype | CD112 blocking max inhibition ELISA (%) [2]: 96.3% | gMFI (fold increase over isotype) [3]: 55.7 fold increase over isotype | CD112 blocking max inhibition (%) [4]: 96.8% | IC50 [4]: 0.69 ng/mL

B3: Antibody 2 (antibody, V domains shown)
VH: EVQLVESGGGLVKPGGSLRLSCAASGFTFSEYTMNWVRQAPGKGLEWVSAIVGSGDSTYYADSVKGRFTISRDNSKNTLYLQMNSLRAEDTAVYYCAKDYSSGDWIDYGMDVWGQGTTVTVSS
VL: DIQMTQSPSSLSASVGDRVTITCQASQDISNYLNWYQQKPGKAPKLLIYDASNLATGVPSRFSGSGSGTDFTFTISSLQPEDIATYYCQQFDLLPPTFGGGTKVEIK
notes: Purified as IgG; compared with an IgG1 isotype control and detected with anti-human IgG Fc; also called antibody clone number 2; clone 2
gMFI (fold increase over isotype) [1]: 4.7 fold increase over isotype | CD112 blocking max inhibition ELISA (%) [2]: 97% | gMFI (fold increase over isotype) [3]: 63.9 fold increase over isotype | CD112 blocking max inhibition (%) [4]: 94.1% | IC50 [4]: 0.83 ng/mL

B4: Antibody 5 (antibody, V domains shown)
VH: EVQLLESGGGLVQPGGSLRLSCAASGFTFSDYAMIWVRQAPGKGLEWVSAISGGGESTYYADSVKGRFTISRDNSKNTLYLQMNSLRAEDTAVYYCAKDYSSGDWIDYGMDVWGQGTTVTVSS
VL: DIQMTQSPSSLSASVGDRVTITCQASQDISNYLNWYQQKPGKAPKLLIYDASNLATGVPSRFSGSGSGTDFTFTISSLQPEDIATYYCQQFDLLPPTFGGGTKVEIK
notes: Purified as IgG; compared with an IgG1 isotype control and detected with anti-human IgG Fc; also called antibody clone number 5; clone 5
gMFI (fold increase over isotype) [1]: 3.8 fold increase over isotype | CD112 blocking max inhibition ELISA (%) [2]: 97.4% | gMFI (fold increase over isotype) [3]: 63.3 fold increase over isotype | CD112 blocking max inhibition (%) [4]: 97% | IC50 [4]: 0.17 ng/mL

B5: Antibody 15 (antibody, V domains shown)
VH: EVQLVESGGGLVQPGRSLRLSCTASGFTFGDVAMSWFRQAPGKGLEWVGYIGSKAYGGETEYTASVKGRFTISRDGSKSIAYLQMNSLKTEDTAVYYCARAGHSYGSIASNWFDPWGQGTLVTVSS
VL: DIQMTQSPSSLSASVGDRVTITCRASQSISSYLNWYQQKPGKAPKLLIYGASSLQSGVPSRFSGSGSGTDFTLTISSLQPEDFATYYCQQGFYTPWTFGGGTKVEIK
notes: Purified as IgG; compared with an IgG1 isotype control and detected with anti-human IgG Fc; also called antibody clone number 15; clone 15
gMFI (fold increase over isotype) [1]: 4 fold increase over isotype | CD112 blocking max inhibition ELISA (%) [2]: 97% | gMFI (fold increase over isotype) [3]: 53.2 fold increase over isotype | CD112 blocking max inhibition (%) [4]: 97.9% | IC50 [4]: 0.51 ng/mL

B6: Antibody 38 (antibody, V domains shown)
VH: EVQLLESGGGLVQPGGSLRLSCAASGFTFSGHLMSWVRQAPGKGLEWVSAISGSAGETYYADSVKGRFTISRDNSKNTLYLQMNSLRAEDTAVYYCARDAYYDDWSGWADWYFDLWGRGTLVTVSS
VL: EIVLTQSPATLSLSPGERATLSCRASQSVSRYLAWYQQKPGQAPRLLIYDASNRATGIPARFSGSGSGTDFTLTISSLEPEDFAVYYCQQVSLLPPTFGGGTKVEIK
notes: Purified as IgG; compared with an IgG1 isotype control and detected with anti-human IgG Fc; also called antibody clone number 38; clone 38
gMFI (fold increase over isotype) [1]: 3.8 fold increase over isotype | CD112 blocking max inhibition ELISA (%) [2]: 97.2% | gMFI (fold increase over isotype) [3]: 51.7 fold increase over isotype | CD112 blocking max inhibition (%) [4]: 95.5% | IC50 [4]: 0.19 ng/mL
